Assay results as given in patent US20100247430A1 (published 2010).

Biological target: Dlg1 (endogenous, mouse T cells) (mouse, UniProt Q811D0 1-905, limits assumed)
Assay: co-immunoprecipitation from activated mouse CD4+ T cell extracts, anti-Dlg1 IP, anti-Crtam immunoblot
Protocol: (A) Naïve CD4⁺ T cells from Crtam^{-/+} and Crtam^{-/-} mice were activated for the indicated times and cell extracts were immunoprecipitated with Abs against Scrib (upper panels) or Dlg1 (lower panels). Immune complexes were then analyzed by immunoblotting against Crtam. Data shown are representative of five independent experiments.
To assess the interaction of Crtam and PDZ-containing proteins, microbead purified CD4⁺ T cells were stimulated with plate-bound […] (10 μg/ml) and anti-CD28 (2 μg/ml) mAbs, whole cell extracts were immunoprecipitated using anti-Scrib antibody (K-21, Santa Cruz) and immune complexes analyzed by immunoblotting with anti-Crtam mAb (6E2, Genentech) or anti-Scrib Ab (H-300, Santa Cruz). The control experiment was performed using anti-Dlg1 Ab (H-60, Santa Cruz) for immunoprecipitation. […] Crtam-Flag was immunoprecipitated using anti-Flag M2-agarose beads (Sigma) and immune complexes were analyzed by immunoblotting with anti-GST (GE Healthcare Bio-Sciences) or anti-Crtam (6E2) mAbs.
To define the mechanism(s) by which Crtam regulates T cell morphology, we analyzed the ability of Scrib and Dlg1 to co-immunoprecipitate with Crtam in resting and activated T cells (FIG. 5A). Crtam was detected in Scrib, but not Dlg1, immunoprecipitates 14 h following TCR activation. […]

Sequence of Dlg1 (endogenous, mouse T cells) (Q811D0 whole entry): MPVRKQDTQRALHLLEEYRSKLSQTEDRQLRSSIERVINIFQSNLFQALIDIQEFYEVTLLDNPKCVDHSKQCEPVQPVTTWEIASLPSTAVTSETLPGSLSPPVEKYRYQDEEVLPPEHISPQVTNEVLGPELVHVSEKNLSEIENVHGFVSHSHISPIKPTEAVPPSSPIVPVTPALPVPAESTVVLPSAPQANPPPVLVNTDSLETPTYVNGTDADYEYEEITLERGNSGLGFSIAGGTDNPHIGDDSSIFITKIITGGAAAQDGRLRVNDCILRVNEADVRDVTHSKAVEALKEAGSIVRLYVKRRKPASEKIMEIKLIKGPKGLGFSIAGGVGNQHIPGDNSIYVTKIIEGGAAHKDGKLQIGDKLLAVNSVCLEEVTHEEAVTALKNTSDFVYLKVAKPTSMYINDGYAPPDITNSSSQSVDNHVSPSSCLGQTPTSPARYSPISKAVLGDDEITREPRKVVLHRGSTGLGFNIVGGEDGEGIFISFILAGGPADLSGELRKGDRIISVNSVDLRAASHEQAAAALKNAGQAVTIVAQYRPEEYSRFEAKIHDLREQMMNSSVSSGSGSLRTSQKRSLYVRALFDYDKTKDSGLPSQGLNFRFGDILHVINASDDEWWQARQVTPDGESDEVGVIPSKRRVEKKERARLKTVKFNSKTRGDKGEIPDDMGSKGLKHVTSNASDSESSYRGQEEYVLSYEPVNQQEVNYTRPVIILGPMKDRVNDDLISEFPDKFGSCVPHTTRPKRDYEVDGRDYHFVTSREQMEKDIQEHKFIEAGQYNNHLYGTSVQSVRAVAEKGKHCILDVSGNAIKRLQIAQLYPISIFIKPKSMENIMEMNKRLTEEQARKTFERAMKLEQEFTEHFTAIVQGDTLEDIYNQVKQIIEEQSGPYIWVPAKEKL

B1: mouse Crtam (endogenous, on activated mouse T cells) (receptor)
chain: AFLKMETVTVEEGQTLTLTCVTSQTKNVSLQWLAPSGFTIFLNQHPALKSSKYQLLHHSATQLSISVSNVTLREEGVYTCLHYGSSVKTKQVRVTVLVTPFQPTVEALVLRRQNGEKSVVLKCSTERSKPPPQITWLLGEGLEIYGELHHEFEADGKICNTSSTLIARAYGKNSTVHCIIQHEGLHGRKLVAPFQFEDLVADQETTSDAPEQSSLSSQALQQPTSTVSMMENSSIPETDKEEKEHATQDPGLSTASAQHTGLARRKSGILLLTLVSFLIFILFIIVQLFIMKLRKAHVVWKKESEISEQALESYRSRSNNEETSSQENSSQAPQSKRCMNYITQLYSGAKTKKSAQHWKLGGKHSRVPESIV
notes: Endogenous protein of mouse CD4+ or CD8+ T cells; In the co-immunoprecipitations it came from whole cell extracts; In flow cytometry and the Cadm1(ECD)-Fc assay it was on the cell surface; also called class-I MHC restricted T-cell associated molecule
**Q.** Does B1 bind?
**A.** no binding
